Source: PMC5285506

Test system: T1, Rob (Staphylococcus aureus FK300 (rsbU-repaired NCTC8325-4 derivative)), ORF:92c4d64d
T1 sequence: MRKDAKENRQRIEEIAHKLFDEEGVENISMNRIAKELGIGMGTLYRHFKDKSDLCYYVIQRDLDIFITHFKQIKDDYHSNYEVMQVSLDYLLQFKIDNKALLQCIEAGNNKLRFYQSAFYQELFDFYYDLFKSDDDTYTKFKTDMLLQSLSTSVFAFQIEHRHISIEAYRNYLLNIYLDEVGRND
Test: EMSA
Conditions: 10 mM HEPES pH 8.0, 60 mM KCl, 4 mM MgCl2, 0.1 mM EDTA, 0.1 mg/ml BSA, 0.25 mM DTT, 5% glycerol, 1 ug salmon sperm DNA and 1 ug poly(dI-dC) per 20 ul, room …

Sequence | binding
ACAAATATTTCCGTTTAATTATAACAACAATCTATTGCAAATTAAAATACTATCAATTACCATATGGCTTACAACCTAACTAACGAAAGGTAGGTAAAGGAATTGCAA (double strand) [SHORT-1 (108 bp)] | binds
TTGCAATTCCTTTACCTACCTTTCGTTAGTTAGGTTGTAAGCCATATGGTAATTGATAGTATTTTAATTTGCAATAGATT (double strand) [SHORT-2] | no binding
